Reference: PMC6515407, “Laccases with Variable Properties from Different Strains of Steccherinum ochraceum: Does Glycosylation Matter?” (International Journal of Molecular Sciences, 2019)

Assays:
Settings in all cases: 0.1 M McIlvaine buffer pH 4.5, 25 °C, native glycosylated enzyme
[1] = substrate: CCn1c(=NN=c2sc3cc(S(=O)(=O)O)ccc3n2CC)sc2cc(S(=O)(=O)O)ccc21; assay: spectrophotometric oxidation kinetics; assay type: biochemical, Steccherinum ochraceum
Description: (§1) spectrophotometric oxidation kinetics on So3827

[2] = substrate: COc1cc(C=NN=Cc2cc(OC)c(O)c(OC)c2)cc(OC)c1O; assay: spectrophotometric oxidation kinetics; assay type: biochemical, Steccherinum ochraceum
Description: as §1

[3] = substrate: CCn1c(=NN=c2sc3cc(S(=O)(=O)O)ccc3n2CC)sc2cc(S(=O)(=O)O)ccc21; assay: spectrophotometric oxidation kinetics; assay type: biochemical, Steccherinum ochraceum; remark: listed apart in the source
Description: (§2) spectrophotometric oxidation kinetics on So3622

[4] = substrate: COc1cc(C=NN=Cc2cc(OC)c(O)c(OC)c2)cc(OC)c1O; assay: spectrophotometric oxidation kinetics; assay type: biochemical, Steccherinum ochraceum; remark: listed apart in the source
Description: as §2

[5] = substrate: CCn1c(=NN=c2sc3cc(S(=O)(=O)O)ccc3n2CC)sc2cc(S(=O)(=O)O)ccc21; assay: spectrophotometric oxidation kinetics; assay type: biochemical, Steccherinum ochraceum; remark: listed apart in the source
Description: (§3) spectrophotometric oxidation kinetics on So3617

[6] = substrate: COc1cc(C=NN=Cc2cc(OC)c(O)c(OC)c2)cc(OC)c1O; assay: spectrophotometric oxidation kinetics; assay type: biochemical, Steccherinum ochraceum; remark: listed apart in the source
Description: as §3

purified protein = substrate: COc1ccccc1O; assay: purified protein
[7] = substrate: CCn1c(=NN=c2sc3cc(S(=O)(=O)O)ccc3n2CC)sc2cc(S(=O)(=O)O)ccc21; assay: spectrophotometric oxidation kinetics; assay type: biochemical, Steccherinum ochraceum; remark: listed apart in the source
Description: (§4) spectrophotometric oxidation kinetics on So3174

[8] = substrate: COc1cc(C=NN=Cc2cc(OC)c(O)c(OC)c2)cc(OC)c1O; assay: spectrophotometric oxidation kinetics; assay type: biochemical, Steccherinum ochraceum; remark: listed apart in the source
Description: as §4

[9] = substrate: COc1cccc(OC)c1O; assay: spectrophotometric oxidation kinetics; assay type: biochemical, Steccherinum ochraceum
Description: as §4

[10] = substrate: Oc1ccccc1O; assay: spectrophotometric oxidation kinetics; assay type: biochemical, Steccherinum ochraceum
Description: as §4

[11] = substrate: CCn1c(=NN=c2sc3cc(S(=O)(=O)O)ccc3n2CC)sc2cc(S(=O)(=O)O)ccc21; assay: spectrophotometric oxidation kinetics; assay type: biochemical, Steccherinum ochraceum; remark: listed apart in the source
Description: (§5) spectrophotometric oxidation kinetics on So3120

[12] = substrate: COc1cc(C=NN=Cc2cc(OC)c(O)c(OC)c2)cc(OC)c1O; assay: spectrophotometric oxidation kinetics; assay type: biochemical, Steccherinum ochraceum; remark: listed apart in the source
Description: as §5

[13] = substrate: COc1cccc(OC)c1O; assay: spectrophotometric oxidation kinetics; assay type: biochemical, Steccherinum ochraceum; remark: listed apart in the source
Description: as §5

[14] = substrate: CCn1c(=NN=c2sc3cc(S(=O)(=O)O)ccc3n2CC)sc2cc(S(=O)(=O)O)ccc21; assay: spectrophotometric oxidation kinetics; assay type: biochemical, Steccherinum ochraceum; remark: listed apart in the source
Description: (§6) spectrophotometric oxidation kinetics on So3398

[15] = substrate: COc1cc(C=NN=Cc2cc(OC)c(O)c(OC)c2)cc(OC)c1O; assay: spectrophotometric oxidation kinetics; assay type: biochemical, Steccherinum ochraceum; remark: listed apart in the source
Description: as §6

[16] = substrate: COc1cccc(OC)c1O; assay: spectrophotometric oxidation kinetics; assay type: biochemical, Steccherinum ochraceum; remark: listed apart in the source
Description: as §6

B1: So3827 (Steccherinum ochraceum) (protein)
chain: VQIGPVTDLHITNANIAPDGFTRPAVLAGGTFPGPTISGNTGDNFQITVFNELTETSMLTDTSIHWHGLFQKGTNWADGPAFVTQCPIITGNSFDYNFNVPGQAGTYWYHSHLSTQYCDGLRGPFVVYDPNDPNASLYDVDDDTTIITLADWYHTLAQQEPIGAAITADATLINGLGRSFTNTTASPLSVITVQSGKRYRMRLVSISCDPNYQFSIDGHDMTIIEVDGVNSQQLTVDQIQIFAAQRYSFVLNANQPVGNYWIRAQPNSGGQGFDGGINSAILRYEGATVADPTTSPPTTFTSPLVETNLHPLADLGVPGQPFRGGADDPMVLNLGFANGRFTIDGVSFVPPTVPVLLQILSGAQNAQDLLPAGSVISLPPNSVIEVALPAGAAGGPHPFHLHGHNFAVVQSANNATPNYVNPIWRDTVSIGGTGDNVTIRFTTNNPGPWFLHCHIDWHLEAGFAIVFAEDIPDTASANPVPQAWSDLCPAYDQAHNISTAT
Q: How did the Km [1] turn out when B1 was run?
A: Its Km is 200 ± 7 µM.

Q: What about the kcat [1] of the same protein?
A: The kcat was 276 ± 31 s⁻¹.

Q: What about the kcat/Km [1] of the same protein?
A: Its kcat/Km is 1.38e+06 ± 162000 M⁻¹ s⁻¹.

Q: What about the Km [2] of the same protein?
A: Its Km is 6.7 ± 0.9 µM.

Q: And the kcat [2]?
A: The kcat was 113 ± 12 s⁻¹.

Q: And the kcat/Km [2]?
A: Its kcat/Km is 1.69e+07 ± 2.87e+06 M⁻¹ s⁻¹.

B2: So3622 (Steccherinum ochraceum) (protein)
chain: VQIGPVTDLHITNANIAPDGFTRPAVLAGGTFPGPTISGNTGDNFQITVFNELTETSMLTDTSIHWHGLFQKGTNWADGPAFVTQCPIITGNSFDYNFNVPGQAGTYWYHSHLSTQYCDGLRGPFVVYDPNDPNASLYDVDDDTTIITLADWYHTLAQQEPIGAAITADATLINGLGRSFTNTTASPLSVITVQSGKRYRMRLVSISCDPNYQFSIDGHDMTIIEVDGVNSQQLTVDQIQIFAAQRYSFVLNANQPVGNYWIRAQPNSGGQGFDGGINSAILRYEGATVADPTTSPPTTFTSPLVETNLHPLADLGVPGQPFRGGADDPMVLNLGFANGRFTIDGVSFVPPTVPVLLQILSGAQNAQDLLPAGSVISLPPNSVIEVALPAGAAGGPHPFHLHGHNFAVVQSANNATPNYVNPIWRDTVSIGGTGDNVTIRFTTNNPGPWFLHCHIDWHLEAGFAIVFAEDIPDTASANPVPQAWSDLCPAYDQAHNISTAT
Q: With B2 as the protein, how does the Km [3] read?
A: The Km was 174 ± 11 µM.

Q: What about the kcat [3] of the same protein?
A: The kcat was 252 ± 20 s⁻¹.

Q: And the kcat/Km [3]?
A: The kcat/Km was 1.45e+06 ± 147000 M⁻¹ s⁻¹.

Q: What about the Km [4] of the same protein?
A: The Km was 5.5 ± 0.7 µM.

Q: What about the kcat [4] of the same protein?
A: The kcat was 83 ± 7 s⁻¹.

Q: And the kcat/Km [4]?
A: The kcat/Km was 1.51e+07 ± 2.21e+06 M⁻¹ s⁻¹.

B3: So3617 (Steccherinum ochraceum) (protein)
chain: VQIGPVTDLHITNANIAPDGFTRPAVLAGGTFPGPTISGNTGDNFQITVFNELTETSMLTDTSIHWHGLFQKGTNWADGPAFVTQCPIITGNSFDYNFNVPGQAGTYWYHSHLSTQYCDGLRGPFVVYDPNDPNASLYDVDDDTTIITLADWYHTLAQQEPIGAAITADATLINGLGRSFTNTTASPLSVITVQSGKRYRMRLVSISCDPNYQFSIDGHDMTIIEVDGVNSQQLTVDQIQIFAAQRYSFVLNANQPVGNYWIRAQPNSGGQGFDGGINSAILRYEGATVADPTTSPPTTFTSPLVETNLHPLADLGVPGQPFRGGADDPMVLNLGFANGRFTIDGVSFVPPTVPVLLQILSGAQNAQDLLPAGSVISLPPNSVIEVALPAGAAGGPHPFHLHGHNFAVVQSANNATPNYVNPIWRDTVSIGGTGDNVTIRFTTNNPGPWFLHCHIDWHLEAGFAIVFAEDIPDTASANPVPQAWSDLCPAYDQAHNISTAT
Q: B3 was tested. Which Km [5] did it give?
A: Its Km is 212 ± 10 µM.

Q: What about the kcat [5] of the same protein?
A: Its kcat is 228 ± 21 s⁻¹.

Q: And the kcat/Km [5]?
A: The kcat/Km was 1.08e+06 ± 111000 M⁻¹ s⁻¹.

Q: And the Km [6]?
A: The Km was 5.2 ± 0.6 µM.

Q: And the kcat [6]?
A: Its kcat is 89 ± 10 s⁻¹.

Q: What about the kcat/Km [6] of the same protein?
A: The kcat/Km was 1.71e+07 ± 2.69e+06 M⁻¹ s⁻¹.

B4: So3174 (Steccherinum ochraceum) (protein)
chain: VQIGPVTDLHITNANIAPDGFTRPAVLAGGTFPGPTISGNTGDNFQITVFNELTETSMLTDTSIHWHGLFQKGTNWADGPAFVTQCPIITGNSFDYNFNVPGQAGTYWYHSHLSTQYCDGLRGPFVVYDPNDPNASLYDVDDDTTIITLADWYHTLAQQEPIGAAITADATLINGLGRSFTNTTASPLSVITVQSGKRYRMRLVSISCDPNYQFSIDGHDMTIIEVDGVNSQQLTVDQIQIFAAQRYSFVLNANQPVGNYWIRAQPNSGGQGFDGGINSAILRYEGATVADPTTSPPTTFTSPLVETNLHPLADLGVPGQPFRGGADDPMVLNLGFANGRFTIDGVSFVPPTVPVLLQILSGAQNAQDLLPAGSVISLPPNSVIEVALPAGAAGGPHPFHLHGHNFAVVQSANNATPNYVNPIWRDTVSIGGTGDNVTIRFTTNNPGPWFLHCHIDWHLEAGFAIVFAEDIPDTASANPVPQAWSDLCPAYDQAHNISTAT
Q: Which Km (purified protein) does the source give for B4 here?
A: Its Km is 2230 ± 205 µM.

Q: What about the kcat (purified protein) of the same protein?
A: The kcat was 152 s⁻¹.

Q: And the kcat/Km (purified protein)?
A: Its kcat/Km is 68000 M⁻¹ s⁻¹.

Q: And the Km [7]?
A: The Km was 81 ± 9 µM.

Q: What about the kcat [7] of the same protein?
A: Its kcat is 240 ± 21 s⁻¹.

Q: And the kcat/Km [7]?
A: The kcat/Km was 2.96e+06 ± 416000 M⁻¹ s⁻¹.

Q: And the Km [8]?
A: Its Km is 3.8 ± 0.6 µM.

Q: What about the kcat [8] of the same protein?
A: The kcat was 104 ± 11 s⁻¹.

Q: What about the kcat/Km [8] of the same protein?
A: Its kcat/Km is 2.74e+07 ± 5.09e+06 M⁻¹ s⁻¹.

Q: What about the Km [9] of the same protein?
A: Its Km is 20 ± 2 µM.

Q: And the kcat [9]?
A: The kcat was 101 ± 9 s⁻¹.

Q: And the kcat/Km [9]?
A: The kcat/Km was 5.05e+06 ± 755000 M⁻¹ s⁻¹.

Q: What about the Km [10] of the same protein?
A: The Km was 576 ± 86 µM.

Q: And the kcat [10]?
A: Its kcat is 373 ± 27 s⁻¹.

Q: What about the kcat/Km [10] of the same protein?
A: The kcat/Km was 648000 ± 108000 M⁻¹ s⁻¹.

B5: So3120 (Steccherinum ochraceum) (protein)
chain: VQIGPVTDLHITNANIAPDGFTRPAVLAGGTFPGPTISGNTGDNFQITVFNELTETSMLTDTSIHWHGLFQKGTNWADGPAFVTQCPIITGNSFDYNFNVPGQAGTYWYHSHLSTQYCDGLRGPFVVYDPNDPNASLYDVDDDTTIITLADWYHTLAQQEPIGAAITADATLINGLGRSFTNTTASPLSVITVQSGKRYRMRLVSISCDPNYQFSIDGHDMTIIEVDGVNSQQLTVDQIQIFAAQRYSFVLNANQPVGNYWIRAQPNSGGQGFDGGINSAILRYEGATVADPTTSPPTTFTSPLVETNLHPLADLGVPGQPFRGGADDPMVLNLGFANGRFTIDGVSFVPPTVPVLLQILSGAQNAQDLLPAGSVISLPPNSVIEVALPAGAAGGPHPFHLHGHNFAVVQSANNATPNYVNPIWRDTVSIGGTGDNVTIRFTTNNPGPWFLHCHIDWHLEAGFAIVFAEDIPDTASANPVPQAWSDLCPAYDQAHNISTAT
Q: Which Km [11] does the source give for B5 here?
A: The Km was 175 ± 23 µM.

Q: What about the kcat [11] of the same protein?
A: Its kcat is 325 ± 28 s⁻¹.

Q: And the kcat/Km [11]?
A: The kcat/Km was 1.86e+06 ± 290000 M⁻¹ s⁻¹.

Q: What about the Km [12] of the same protein?
A: The Km was 5.4 ± 0.8 µM.

Q: And the kcat [12]?
A: The kcat was 105 ± 12 s⁻¹.

Q: And the kcat/Km [12]?
A: The kcat/Km was 1.94e+07 ± 3.62e+06 M⁻¹ s⁻¹.

Q: What about the Km [13] of the same protein?
A: Its Km is 17 ± 3 µM.

Q: And the kcat [13]?
A: The kcat was 110 ± 14 s⁻¹.

Q: And the kcat/Km [13]?
A: The kcat/Km was 6.47e+06 ± 1.27e+06 M⁻¹ s⁻¹.

B6: So3398 (Steccherinum ochraceum) (protein)
chain: VQIGPVTDLHITNANIAPDGFTRPAVLAGGTFPGPTISGNTGDNFQITVFNELTETSMLTDTSIHWHGLFQKGTNWADGPAFVTQCPIITGNSFDYNFNVPGQAGTYWYHSHLSTQYCDGLRGPFVVYDPNDPNASLYDVDDDTTIITLADWYHTLAQQEPIGAAITADATLINGLGRSFTNTTASPLSVITVQSGKRYRMRLVSISCDPNYQFSIDGHDMTIIEVDGVNSQQLTVDQIQIFAAQRYSFVLNANQPVGNYWIRAQPNSGGQGFDGGINSAILRYEGATVADPTTSPPTTFTSPLVETNLHPLADLGVPGQPFRGGADDPMVLNLGFANGRFTIDGVSFVPPTVPVLLQILSGAQNAQDLLPAGSVISLPPNSVIEVALPAGAAGGPHPFHLHGHNFAVVQSANNATPNYVNPIWRDTVSIGGTGDNVTIRFTTNNPGPWFLHCHIDWHLEAGFAIVFAEDIPDTASANPVPQAWSDLCPAYDQAHNISTAT
Q: Which results are given for B6?
A: Km [14]: 209 ± 27 µM; kcat [14]: 281 ± 26 s⁻¹; kcat/Km [14]: 1.34e+06 ± 214000 M⁻¹ s⁻¹; Km [15]: 5.6 ± 0.8 µM; kcat [15]: 119 ± 11 s⁻¹; kcat/Km [15]: 2.12e+07 ± 3.56e+06 M⁻¹ s⁻¹; Km [16]: 17 ± 3 µM; kcat [16]: 152 ± 12 s⁻¹; kcat/Km [16]: 8.94e+06 ± 1.52e+06 M⁻¹ s⁻¹
